Measurements published in paper PMC10786891, “Massively parallel profiling of RNA-targeting CRISPR-Cas13d”.
Numbering of substitutions follows the chain as printed. In names and notes the source's numbering stands.

T1: EsCas13d, nuclease-dead (Eubacterium siraeum, UniProt B0MS50, R295A;H300A;R849A;H854A)
T1 sequence: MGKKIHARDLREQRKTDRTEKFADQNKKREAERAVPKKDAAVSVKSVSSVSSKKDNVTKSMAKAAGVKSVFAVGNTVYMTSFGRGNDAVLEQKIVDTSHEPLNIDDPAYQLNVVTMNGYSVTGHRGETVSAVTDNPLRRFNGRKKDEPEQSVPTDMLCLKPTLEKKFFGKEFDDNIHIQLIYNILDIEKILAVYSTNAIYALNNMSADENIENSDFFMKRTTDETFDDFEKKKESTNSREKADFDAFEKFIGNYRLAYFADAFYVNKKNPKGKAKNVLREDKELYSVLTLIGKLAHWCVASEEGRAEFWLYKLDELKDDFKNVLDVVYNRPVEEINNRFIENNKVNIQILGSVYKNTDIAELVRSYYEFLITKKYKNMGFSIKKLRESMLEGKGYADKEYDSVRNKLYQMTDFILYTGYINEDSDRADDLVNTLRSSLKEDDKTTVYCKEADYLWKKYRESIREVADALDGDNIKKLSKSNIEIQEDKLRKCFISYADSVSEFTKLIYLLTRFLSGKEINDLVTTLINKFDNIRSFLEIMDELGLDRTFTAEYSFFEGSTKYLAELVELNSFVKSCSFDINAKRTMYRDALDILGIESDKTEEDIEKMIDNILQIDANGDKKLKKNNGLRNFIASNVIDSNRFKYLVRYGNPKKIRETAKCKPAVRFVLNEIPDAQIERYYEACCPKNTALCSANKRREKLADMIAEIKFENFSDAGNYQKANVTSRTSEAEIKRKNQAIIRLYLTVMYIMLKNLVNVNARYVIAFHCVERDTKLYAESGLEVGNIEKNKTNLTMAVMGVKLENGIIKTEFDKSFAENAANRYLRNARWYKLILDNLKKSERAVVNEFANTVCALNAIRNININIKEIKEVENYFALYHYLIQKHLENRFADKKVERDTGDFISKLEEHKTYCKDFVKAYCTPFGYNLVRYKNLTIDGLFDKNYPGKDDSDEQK

B1: target 3 insC 3' of 4,insC 3' of 4 (mixed)
RNA 1: CACCCGUGCAAAAUUGCAGGGGUCUAAAACGACCUGAAUAUUUCAGAUCAAA
RNA 2: GGGAAUGGAUCCACAUCUACGAAUUCGUUUUUGAUCUGAAAUAUUCAGCCGUCUGCAGAUCGGAAGAGCACACGU
B2: target 3 C6U,U21G (mixed)
RNA 1: B1 RNA 1
RNA 2: GGGAAUGGAUCCACAUCUACGAAUUCGUUUGUGAUCUGAAAUAUUUAGGUCUGCAGAUCGGAAGAGCACACGU
B3: target 3 insA 3' of 21,insC 3' of 21 (mixed)
RNA 1: B1 RNA 1
RNA 2: GGGAAUGGAUCCACAUCUACGAAUUCGUUUUACUGAUCUGAAAUAUUCAGGUCUGCAGAUCGGAAGAGCACACGU
B4: target 3 G3U,U21A (mixed)
RNA 1: B1 RNA 1
RNA 2: B2 RNA 2 with G31A, U46C, G49U
B5: target 3 G3C,G4C (mixed)
RNA 1: B1 RNA 1
RNA 2: B2 RNA 2 with G31U, U46C, G48C, G49C
B6: target 3 insA 3' of 6,insA 3' of 1 (mixed)
RNA 1: B1 RNA 1
RNA 2: B1 RNA 2 with G48A, C49G, C50G, G51U, U52C, C53A
B7: target 3 insC 3' of 3 (mixed)
RNA 1: B1 RNA 1
RNA 2: GGGAAUGGAUCCACAUCUACGAAUUCGUUUUUGAUCUGAAAUAUUCAGGCUCUGCAGAUCGGAAGAGCACACGU
B8: target 3 insC 3' of 3,insU 3' of 1 (mixed)
RNA 1: B1 RNA 1
RNA 2: B1 RNA 2 with C49G, G51U, U52C, C53U
B9: target 3 A12G,U21A (mixed)
RNA 1: B1 RNA 1
RNA 2: B2 RNA 2 with G31A, A40G, U46C
B10: target 3 A5C,U7A (mixed)
RNA 1: B1 RNA 1
RNA 2: B2 RNA 2 with G31U, U45A, U46C, A47C
B11: target 3 insC 3' of 12,insU 3' of 4 (mixed)
RNA 1: B1 RNA 1
RNA 2: B1 RNA 2 with A41C, U42A, A43U, U44A, C46U, A47C, G48A, C49G, C50U
B12: target 3 C6G,U22C (mixed)
RNA 1: B1 RNA 1
RNA 2: B2 RNA 2 with U30C, G31U, U46G
B13: target 3 G4A,U7G (mixed)
RNA 1: B1 RNA 1
RNA 2: B2 RNA 2 with G31U, U45G, U46C, G48A
B14: target 3 insC 3' of 3,insG 3' of 1 (mixed)
RNA 1: B1 RNA 1
RNA 2: B1 RNA 2 with C49G, G51U, U52C, C53G
B15: target 3 insG 3' of 5,insC 3' of 4 (mixed)
RNA 1: B1 RNA 1
RNA 2: B1 RNA 2 with C49G
B16: target 3 insA 3' of 8,insU 3' of 5 (mixed)
RNA 1: B1 RNA 1
RNA 2: B1 RNA 2 with U45A, C46U, A47C, G48A, C49U, C50G
B17: target 3 G4U,G19U (mixed)
RNA 1: B1 RNA 1
RNA 2: B2 RNA 2 with G31U, G33U, U46C, G48U
B18: target 3 G3C,U22G (mixed)
RNA 1: B1 RNA 1
RNA 2: B2 RNA 2 with U30G, G31U, U46C, G49C
B19: target 3 insA 3' of 22,insU 3' of 22 (mixed)
RNA 1: B1 RNA 1
RNA 2: B3 RNA 2 with U31A, A32U, C33U
B20: target 3 insA 3' of 15,insA 3' of 2 (mixed)
RNA 1: B1 RNA 1
RNA 2: GGGAAUGGAUCCACAUCUACGAAUUCGUUUUUGAUCUAGAAAUAUUCAGGUACUGCAGAUCGGAAGAGCACACGU
B21: target 3 G4U,C6A (mixed)
RNA 1: B1 RNA 1
RNA 2: B2 RNA 2 with G31U, U46A, G48U
B22: target 3 insC 3' of 3,insA 3' of 1 (mixed)
RNA 1: B1 RNA 1
RNA 2: B1 RNA 2 with C49G, G51U, U52C, C53A
B23: target 3 U2C,C6U (mixed)
RNA 1: B1 RNA 1
RNA 2: B2 RNA 2 with G31U, U50C
B24: target 3 U2G,U8A (mixed)
RNA 1: B1 RNA 1
RNA 2: B2 RNA 2 with G31U, U44A, U46C, U50G
B25: target 3 insA 3' of 22,insG 3' of 5 (mixed)
RNA 1: B1 RNA 1
RNA 2: B20 RNA 2 with U31A, G33U, A34G, U35A, C36U, U37C, A38U, U51G, A52U
B26: target 3 A11C,U22A (mixed)
RNA 1: B1 RNA 1
RNA 2: B2 RNA 2 with U30A, G31U, A41C, U46C
B27: target 3 insA 3' of 7,insU 3' of 4 (mixed)
RNA 1: B1 RNA 1
RNA 2: B1 RNA 2 with C46A, A47C, G48A, C49G, C50U
B28: target 3 insA 3' of 6,insG 3' of 1 (mixed)
RNA 1: B1 RNA 1
RNA 2: B1 RNA 2 with G48A, C49G, C50G, G51U, U52C, C53G
B29: target 3 G4U,U22C (mixed)
RNA 1: B1 RNA 1
RNA 2: B2 RNA 2 with U30C, G31U, U46C, G48U
B30: target 3 insU 3' of 16 (mixed)
RNA 1: B1 RNA 1
RNA 2: B7 RNA 2 with G38U, A39G, U42A, A43U, U44A, C46U, A47C, G48A, C50G
B31: target 1 insU 3' of 18,insG 3' of 11 (mixed)
RNA 1: CACCCGUGCAAAAAUGCAGGGGUCUAAAACUGAGCGGAUAACCUCUCUAUGG
RNA 2: GGGAAUGGAUCCACAUCUACGAAUUCGUACCAUAUGAGAGGUGUAUCCGCUCACCGAGAUCGGAAGAGCACACGU
B32: target 1 G5C,C22U (mixed)
RNA 1: B31 RNA 1
RNA 2: GGGAAUGGAUCCACAUCUACGAAUUCGUAUCAUAGAGAGGUUAUCCCCUCACCGAGAUCGGAAGAGCACACGU
B33: target 1 insG 3' of 3 (mixed)
RNA 1: B31 RNA 1
RNA 2: GGGAAUGGAUCCACAUCUACGAAUUCGUACCAUAGAGAGGUUAUCCGCUGCACCGAGAUCGGAAGAGCACACGU

Biological target: T1, EsCas13d, nuclease-dead
Test: crRNA (strand 1, pre-loaded); Mg2+; 40 mM Tris-HCl pH 7.5, 150 mM NaCl, 6 mM MgCl2, 1 mM DTT, 0.1% Tween-20, 0.2 mg/ml BSA; 25 C; 10 min per concentration, then washed
Settings: tags: His6-TwinStrep-SUMO cleaved; N-terminal SNAP kept (SNAP-Surface 488); label: 3' end held by stalled T7 RNA polymerase

| Binder | Kd [nM] |
| --- | --- |
| B1 | 34.5 ± 8.5 |
| B2 | 110 ± 40 |
| B3 | 47 ± 11.5 |
| B4 | 87.5 ± 15.5 |
| B5 | 36.1 ± 5.75 |
| B6 | 53 ± 18 |
| B7 | 19.4 ± 2.05 |
| B8 | 46 ± 6 |
| B9 | 97.5 ± 47 |
| B10 | 77.5 ± 13.5 |
| B11 | ~64.5 |
| B12 | 36.5 ± 6 |
| B13 | 30.2 ± 3.35 |
| B14 | 27.1 ± 7.05 |
| B15 | 7.65 ± 1.2 |
| B16 | 33.9 ± 3.75 |
| B17 | 77.5 ± 10 |

| Binder | Kd [nM] |
| --- | --- |
| B18 | 79.5 ± 13 |
| B19 | 14.6 ± 1.45 |
| B20 | ~64 |
| B21 | 29.5 ± 7.5 |
| B22 | 83 ± 17 |
| B23 | 52.5 ± 7 |
| B24 | 21.6 ± 3.55 |
| B25 | 23.1 ± 3.4 |
| B26 | ~90 |
| B27 | 12.7 ± 1.2 |
| B28 | 32 ± 11 |
| B29 | 4.65 ± 0.85 |
| B30 | 64 ± 8.5 |
| B31 | 78 ± 21 |
| B32 | 22.6 ± 2.9 |
| B33 | 7.3 ± 0.6 |
